From PMC9744909, “Functional crosstalk between the cohesin loader and chromatin remodelers” (Nature Communications, 2022)
Each block holds one binder with its values, some of them ahead of it.

B1: Sth1, the large ATPase subunit of the RSC remodeler complex (natural protein, S. cerevisiae)
chain: MLQEQSELMSTVMNNTPTTVAALAAVAAASETNGKLGSEEQPEITIPKPRSSAQLEQLLYRYRAIQNHPKENKLEIKAIEDTFRNISRDQDIYETKLDTLRKSIDKGFQYDEDLLNKHLVALQLLEKDTDVPDYFLDLPDTKNDNTTAIEVDYSEKKPIKISADFNAKAKSLGLESKFSNATKTALGDPDTEIRISARISNRINELERLPANLGTYSLDDCLEFITKDDLSSRMDTFKIKALVELKSLKLLTKQKSIRQKLINNVASQAHHNIPYLRDSPFTAAAQRSVQIRSKVIVPQTVRLAEELERQQLLEKRKKERNLHLQKINSIIDFIKERQSEQWSRQERCFQFGRLGASLHNQMEKDEQKRIERTAKQRLAALKSNDEEAYLKLLDQTKDTRITQLLRQTNSFLDSLSEAVRAQQNEAKILHGEEVQPITDEEREKTDYYEVAHRIKEKIDKQPSILVGGTLKEYQLRGLEWMVSLYNNHLNGILADEMGLGKTIQSISLITYLYEVKKDIGPFLVIVPLSTITNWTLEFEKWAPSLNTIIYKGTPNQRHSLQHQIRVGNFDVLLTTYEYIIKDKSLLSKHDWAHMIIDEGHRMKNAQSKLSFTISHYYRTRNRLILTGTPLQNNLPELWALLNFVLPKIFNSAKTFEDWFNTPFANTGTQEKLELTEEETLLIIRRLHKVLRPFLLRRLKKEVEKDLPDKVEKVIKCKLSGLQQQLYQQMLKHNALFVGAGTEGATKGGIKGLNNKIMQLRKICNHPFVFDEVEGVVNPSRGNSDLLFRVAGKFELLDRVLPKFKASGHRVLMFFQMTQVMDIMEDFLRMKDLKYMRLDGSTKTEERTEMLNAFNAPDSDYFCFLLSTRAGGLGLNLQTADTVIIFDTDWNPHQDLQAQDRAHRIGQKNEVRILRLITTDSVEEVILERAMQKLDIDGKVIQAGKFDNKSTAEEQEAFLRRLIESETNRDDDDKAELDDDELNDTLARSADEKILFDKIDKERMNQERADAKAQGLRVPPPRLIQLDELPKVFREDIEEHFKKEDSEPLGRIRQKKRVYYDDGLTEEQFLEAVEDDNMSLEDAIKKRREARERRRLRQNGTKENEIETLENTPEASETSLIENNSFTAAVDEETNADKETTASRSKRRSSRKKRTISIVTAEDKENTQEESTSQENGGAKVEEEVKSSSVEIINGSESKKKKPKLTVKIKLNKTTVLENNDGKRAEEKPESKSPAKKTAAKKTKTKSKSLGIFPTVEKLVEEMREQLDEVDSHPRTSIFEKLPSKRDYPDYFKVIEKPMAIDIILKNCKNGTYKTLEEVRQALQTMFENARFYNEEGSWVYVDADKLNEFTDEWFKEHSS
notes: Sth1, budding yeast, as it stands in the purified RSC complex; Present within m2 in the cross-linking experiment; also called RSC ATPase; source: subunit of RSC purified from budding yeast (TAP-tagged Rsc2)

Experiments:
Conditions in all cases: both partners purified
[1] = target: T1, Scc2 subunit of the cohesin loader (S. cerevisiae, UniProt Q04002 1-1493); assay: cross-linking; 0.5 uM cohesin loader and 0.5 uM RSC in CLMS buffer (22.5 mM HEPES-KOH pH 7.5, 75 mM NaCl, 100 mM potassium acetate, 10% glycerol, 0.5 mM TCEP), 1 mM DSSO 15 min 37 C, trypsin digest, tandem mass spectrometry; two biological repeats
T1 construct: Scc2, budding yeast, as it stands in the purified Scc2-Scc4 complex; Present within m1 in the cross-linking experiment; tags as told under m1; source: subunit of Scc2-Scc4 purified from budding yeast (overexpressed)
T1 sequence (looked up): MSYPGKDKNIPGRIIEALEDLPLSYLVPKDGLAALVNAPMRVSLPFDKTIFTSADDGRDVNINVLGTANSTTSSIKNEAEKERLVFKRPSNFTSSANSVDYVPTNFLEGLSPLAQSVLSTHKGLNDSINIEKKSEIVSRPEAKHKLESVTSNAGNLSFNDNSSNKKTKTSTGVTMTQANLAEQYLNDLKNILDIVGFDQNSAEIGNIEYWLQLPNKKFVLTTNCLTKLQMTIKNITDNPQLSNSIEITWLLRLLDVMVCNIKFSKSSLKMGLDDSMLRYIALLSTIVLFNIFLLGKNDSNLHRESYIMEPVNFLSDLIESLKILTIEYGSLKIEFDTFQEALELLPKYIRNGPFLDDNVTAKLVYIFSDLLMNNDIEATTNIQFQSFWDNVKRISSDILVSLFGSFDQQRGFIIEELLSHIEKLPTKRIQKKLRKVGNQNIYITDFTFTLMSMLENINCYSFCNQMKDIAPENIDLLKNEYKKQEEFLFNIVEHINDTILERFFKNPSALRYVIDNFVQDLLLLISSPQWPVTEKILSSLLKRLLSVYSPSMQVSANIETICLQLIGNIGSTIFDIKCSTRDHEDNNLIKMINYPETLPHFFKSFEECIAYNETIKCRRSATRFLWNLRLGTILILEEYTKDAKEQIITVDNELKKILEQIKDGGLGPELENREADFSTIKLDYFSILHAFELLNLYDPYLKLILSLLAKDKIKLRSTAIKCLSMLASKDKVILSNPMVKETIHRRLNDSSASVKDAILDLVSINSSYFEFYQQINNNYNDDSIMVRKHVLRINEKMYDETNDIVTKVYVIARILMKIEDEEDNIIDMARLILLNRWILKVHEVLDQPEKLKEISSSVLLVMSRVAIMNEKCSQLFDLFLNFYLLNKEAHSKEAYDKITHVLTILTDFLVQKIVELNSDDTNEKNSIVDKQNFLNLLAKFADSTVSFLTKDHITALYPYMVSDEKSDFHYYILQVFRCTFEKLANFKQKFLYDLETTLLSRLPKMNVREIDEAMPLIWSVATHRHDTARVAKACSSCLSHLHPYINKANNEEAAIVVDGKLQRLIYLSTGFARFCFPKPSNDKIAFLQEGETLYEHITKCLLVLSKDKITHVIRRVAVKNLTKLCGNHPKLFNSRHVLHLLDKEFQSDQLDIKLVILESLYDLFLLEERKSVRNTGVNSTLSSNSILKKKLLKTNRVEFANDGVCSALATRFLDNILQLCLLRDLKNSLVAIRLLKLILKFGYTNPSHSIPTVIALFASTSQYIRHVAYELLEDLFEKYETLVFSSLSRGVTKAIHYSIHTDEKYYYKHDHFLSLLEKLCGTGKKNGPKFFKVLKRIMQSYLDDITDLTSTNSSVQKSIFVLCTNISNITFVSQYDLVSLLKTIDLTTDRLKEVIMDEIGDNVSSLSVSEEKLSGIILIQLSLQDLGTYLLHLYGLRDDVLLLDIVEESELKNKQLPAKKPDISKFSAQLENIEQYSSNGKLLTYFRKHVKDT

[2] = target: B1; assay: as above
[3] = target: T2, Scc2-Scc4 cohesin loader complex (S. cerevisiae, UniProt Q04002 1-1493; P40090 1-624); assay: co-IP; 50 nM Scc2-Scc4 and 50 nM RSC or Sth1 365-1097 mixed in IP buffer (25 mM Tris-HCl pH 7.5, 100 mM NaCl, 2.5 mM MgCl2, 0.2% Triton X-100, 5% glycerol, 0.5 mM TCEP), loader captured on anti-HA protein A magnetic beads, last wash 300 mM NaCl; Sth1 detected by immunoblotting
T2 construct: Scc2, cohesin loader subunit, budding yeast; Scc4, cohesin loader subunit, budding yeast; Purified by a protein A tag that was removed by 3C protease; also called 2-4

Binder: B1
binding result [1]: binds

binding result [2]: binds
B2: Scc4 subunit of the cohesin loader (natural protein, S. cerevisiae)
chain: MENLGDKLSISQVYHLAQEYRDHAYSIANKIGSEEGLKQYYGLMNMSIQMFQLLKTKCTLSVLEDSKVTFEMVELLIQETYNFDLAELYISSLKERLQTHQSDTDLVEEIMRCEFLLLHDLPLMRDSKFHYKIALRNCNELVQYMVNLQDELYQNWASVFQYVGVMLCIKLKQHRRVKTSFHGLLSQCREKSQWKWFLNLCYVNYLLNERFPIPEDALQELRSTELHTVGPELYAWKLALEMVIQLCKDGNITDHLNEFKNFFDTNKQSLVTNEGKGCVIKIMPRIALKVELPMIFHYKELKNILLLLQSVSYIVNCYDEKGNFSRKFLPKVYSTTQKLIKNIAAGGVSMNELDSRIQTYKSILEFCEFYKVWEQTLLKGAVVTTESPKLGPSPGYVRLLQAMKVQFEGGGAVEEYTRLAQSGGTSSEVKMISLLNCYTVQAARVSRCSGDKQGELVEQCNKVWLQVEKLLQETDLQFNPIWECTVTILWLFSHFEPFSWNPLPCSDKQRAEYVSKLREFYSSNKFVAGEAVADNRFKLKKALLLQILVNYLGGRMLEHDLGEIYAISAKCFDMCRQQGGMRKVQYVIGIWHLMNCTVAMRGKDVALTNAKLEALVKQITSVKQ
notes: Scc4, budding yeast, as it stands in the purified Scc2-Scc4 complex; Present within m1 in the cross-linking experiment; tags as told under m1; source: subunit of Scc2-Scc4 purified from budding yeast (overexpressed)

binding result [3]: binds
B3: Sth1 365-1097 fragment (ATPase motor module) (domain or fragment, S. cerevisiae, UniProt P32597 365-1097, looked up)
chain: DEQKRIERTAKQRLAALKSNDEEAYLKLLDQTKDTRITQLLRQTNSFLDSLSEAVRAQQNEAKILHGEEVQPITDEEREKTDYYEVAHRIKEKIDKQPSILVGGTLKEYQLRGLEWMVSLYNNHLNGILADEMGLGKTIQSISLITYLYEVKKDIGPFLVIVPLSTITNWTLEFEKWAPSLNTIIYKGTPNQRHSLQHQIRVGNFDVLLTTYEYIIKDKSLLSKHDWAHMIIDEGHRMKNAQSKLSFTISHYYRTRNRLILTGTPLQNNLPELWALLNFVLPKIFNSAKTFEDWFNTPFANTGTQEKLELTEEETLLIIRRLHKVLRPFLLRRLKKEVEKDLPDKVEKVIKCKLSGLQQQLYQQMLKHNALFVGAGTEGATKGGIKGLNNKIMQLRKICNHPFVFDEVEGVVNPSRGNSDLLFRVAGKFELLDRVLPKFKASGHRVLMFFQMTQVMDIMEDFLRMKDLKYMRLDGSTKTEERTEMLNAFNAPDSDYFCFLLSTRAGGLGLNLQTADTVIIFDTDWNPHQDLQAQDRAHRIGQKNEVRILRLITTDSVEEVILERAMQKLDIDGKVIQAGKFDNKSTAEEQEAFLRRLIESETNRDDDDKAELDDDELNDTLARSADEKILFDKIDKERMNQERADAKAQGLRVPPPRLIQLDELPKVFREDIEEHFKKEDSEPLGRIRQKKRVYYDDGLTEEQFLEAVEDDNMSLEDAIKKRREARERRRLRQ
notes: Cloned into pGEX-6P-2; also called Sth1 ATPase module; source: E. coli BL21 Star (DE3) pLysS, purified (glutathione-sepharose, 3C protease cleavage, Superdex 200)
